Results published in patent US20240294593A1 (Genentech, published 2024).

B1: H1.197_L1.1 (XENP32813) (antibody, human IgG1, kappa, V domains shown)
VH: EVQLVESGGGLVQPGGSLRLSCAASGFTFSSFGMHWVRQAPGKGLEWVSYISSGSSIIYYADSVKGRFTISRDNAKNSLYLQMNSLRAEDTAVYYCARGGRLLFSPDYWGQGTLVTVSS
VL: DIVMTQSPDSLAVSLGERATINCKSSQSLLHSGNQKNYLTWYQQKPGQPPKLLIYWASTRESGVPDRFTGSGSGTDFTLTISSLQAEDVAVYYCQNDYSYPFTFGSGTKLEIKR
notes: VH substitution V111L/W112F (Xencor #); V99L/W100F (Kabat); also called mAb C[PD1]_H1.197_L1.1_IgG1_PVA_/S267K
B2: H1.192_L1.1 (XENP32808) (antibody, human IgG1, kappa, V domains shown)
VH: EVQLVESGGGLVQPGGSLRLSCAASGFTFSSFGMHWVRQAPGKGLEWVSYISSGSSIIYYADSVKGRFTISRDNAKNSLYLQMNSLRAEDTAVYYCARGGRLLFAPDYWGQGTLVTVSS
VL: DIVMTQSPDSLAVSLGERATINCKSSQSLLHSGNQKNYLTWYQQKPGQPPKLLIYWASTRESGVPDRFTGSGSGTDFTLTISSLQAEDVAVYYCQNDYSYPFTFGSGTKLEIKR
notes: VH substitution V111L/W112F/S113A (Xencor #); V99L/W100F/S100aA (Kabat); also called mAb C[PD1]_H1.192_L1.1_IgG1_PVA_/S267K
B3: H1.200_L1.1 (XENP32816) (antibody, human IgG1, kappa, V domains shown)
VH: EVQLVESGGGLVQPGGSLRLSCAASGFTFSSFGMHWVRQAPGKGLEWVSYISSGSSIIYYADSVKGRFTISRDNAKNSLYLQMNSLRAEDTAVYYCARGHRVVFSPDYWGQGTLVTVSS
VL: DIVMTQSPDSLAVSLGERATINCKSSQSLLHSGNQKNYLTWYQQKPGQPPKLLIYWASTRESGVPDRFTGSGSGTDFTLTISSLQAEDVAVYYCQNDYSYPFTFGSGTKLEIKR
notes: VH substitution G108H/L110V/W112F (Xencor #); G96H/L98V/W100F (Kabat); also called mAb C[PD1]_H1.200_L1.1_IgG1_PVA_/S267K
B4: H1.194_L1.1 (XENP32810) (antibody, human IgG1, kappa, V domains shown)
VH: EVQLVESGGGLVQPGGSLRLSCAASGFTFSSFGMHWVRQAPGKGLEWVSYISSGSSIIYYADSVKGRFTISRDNAKNSLYLQMNSLRAEDTAVYYCARGGQLVFSPDYWGQGTLVTVSS
VL: DIVMTQSPDSLAVSLGERATINCKSSQSLLHSGNQKNYLTWYQQKPGQPPKLLIYWASTRESGVPDRFTGSGSGTDFTLTISSLQAEDVAVYYCQNDYSYPFTFGSGTKLEIKR
notes: VH substitution R109Q/W112F (Xencor #); R97Q/W100F (Kabat); also called mAb C[PD1]_H1.194_L1.1_IgG1_PVA_/S267K
B5: H1.96_L1 (antibody, V domains shown)
VH: EVQLVESGGGLVQPGGSLRLSCAASGFTFSSFGMHWVRQAPGKGLEWVSYISSGSSIEYYADSVKGRFTISRDNAKNSLYLQMNSLRAEDTAVYYCARGGRLVWSPDYWGQGTLVTVSS
VL: DIVMTQSPDSLAVSLGERATINCKSSQSLLNSGNQKNYLTWYQQKPGQPPKLLIYWASTRESGVPDRFTGSGSGTDFTLTISSLQAEDVAVYYCQNDYSYPFTFGSGTKLEIKR
notes: also called VH-I62E; Kabat 57
B6: H1.193_L1.1 (XENP32809) (antibody, human IgG1, kappa, V domains shown)
VH: EVQLVESGGGLVQPGGSLRLSCAASGFTFSSFGMHWVRQAPGKGLEWVSYISSGSSIIYYADSVKGRFTISRDNAKNSLYLQMNSLRAEDTAVYYCARGGRQLFSPDYWGQGTLVTVSS
VL: DIVMTQSPDSLAVSLGERATINCKSSQSLLHSGNQKNYLTWYQQKPGQPPKLLIYWASTRESGVPDRFTGSGSGTDFTLTISSLQAEDVAVYYCQNDYSYPFTFGSGTKLEIKR
notes: VH substitution L110Q/V111L/W112F (Xencor #); L98Q/V99L/W100F (Kabat); also called mAb C[PD1]_H1.193_L1.1_IgG1_PVA_/S267K
B7: H1.190_L1.1 (XENP32806) (antibody, human IgG1, kappa, V domains shown)
VH: EVQLVESGGGLVQPGGSLRLSCAASGFTFSSFGMHWVRQAPGKGLEWVSYISSGSSIIYYADSVKGRFTISRDNAKNSLYLQMNSLRAEDTAVYYCARGGALVFSPDYWGQGTLVTVSS
VL: DIVMTQSPDSLAVSLGERATINCKSSQSLLHSGNQKNYLTWYQQKPGQPPKLLIYWASTRESGVPDRFTGSGSGTDFTLTISSLQAEDVAVYYCQNDYSYPFTFGSGTKLEIKR
notes: VH substitution R109A/W112F (Xencor #); R97A/W100F (Kabat); also called mAb C[PD1]_H1.190_L1.1_IgG1_PVA_/S267K
B8: H1.99_L1 (antibody, V domains shown)
VH: EVQLVESGGGLVQPGGSLRLSCAASGFTFSSFGMHWVRQAPGKGLEWVSYISSGSSIIHYADSVKGRFTISRDNAKNSLYLQMNSLRAEDTAVYYCARGGRLVWSPDYWGQGTLVTVSS
VL: DIVMTQSPDSLAVSLGERATINCKSSQSLLNSGNQKNYLTWYQQKPGQPPKLLIYWASTRESGVPDRFTGSGSGTDFTLTISSLQAEDVAVYYCQNDYSYPFTFGSGTKLEIKR
notes: also called VH-Y63H; Kabat 58
B9: H1.191_L1.1 (XENP32807) (antibody, human IgG1, kappa, V domains shown)
VH: EVQLVESGGGLVQPGGSLRLSCAASGFTFSSFGMHWVRQAPGKGLEWVSYISSGSSIIYYADSVKGRFTISRDNAKNSLYLQMNSLRAEDTAVYYCARGGRLTFSPDYWGQGTLVTVSS
VL: DIVMTQSPDSLAVSLGERATINCKSSQSLLHSGNQKNYLTWYQQKPGQPPKLLIYWASTRESGVPDRFTGSGSGTDFTLTISSLQAEDVAVYYCQNDYSYPFTFGSGTKLEIKR
notes: VH substitution V111T/W112F (Xencor #); V99T/W100F (Kabat); also called mAb C[PD1]_H1.191_L1.1_IgG1_PVA_/S267K
B10: H1.97_L1 (antibody, V domains shown)
VH: EVQLVESGGGLVQPGGSLRLSCAASGFTFSSFGMHWVRQAPGKGLEWVSYISSGSSIKYYADSVKGRFTISRDNAKNSLYLQMNSLRAEDTAVYYCARGGRLVWSPDYWGQGTLVTVSS
VL: DIVMTQSPDSLAVSLGERATINCKSSQSLLNSGNQKNYLTWYQQKPGQPPKLLIYWASTRESGVPDRFTGSGSGTDFTLTISSLQAEDVAVYYCQNDYSYPFTFGSGTKLEIKR
notes: also called VH-I62K; Kabat 57

How the values were obtained:
human PD-1-His [1] = molecular target: T1, human PD-1-His (human, UniProt Q15116 25-167, limits assumed); test: Octet (BLI), AHC biosensors capture the bivalent mAb, dipped into multiple concentrations of PD-1; KDapp per legend
T1 construct: Antigen of the Octet assays; not shown: His tag
T1 sequence (Q15116 25-167 limits assumed): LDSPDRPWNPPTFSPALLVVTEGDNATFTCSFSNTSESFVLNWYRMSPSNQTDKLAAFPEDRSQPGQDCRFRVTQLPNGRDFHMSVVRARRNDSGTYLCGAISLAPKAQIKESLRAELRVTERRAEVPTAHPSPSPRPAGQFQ

human PD-1-His [2] = molecular target: T1, human PD-1-His; test: Octet (BLI), AHC capture of the bivalent mAb, PD-1 in solution
human PD-1-His [3] = molecular target: T1, human PD-1-His; test: Octet

| Binder | Kd (human PD-1-His [1]) [nM] | koff (human PD-1-His [2]) [s⁻¹] | kon (human PD-1-His [2]) [M⁻¹ s⁻¹] | Kd (human PD-1-His [3]) [nM] | koff (human PD-1-His [3]) [s⁻¹] | kon (human PD-1-His [3]) [M⁻¹ s⁻¹] |
| --- | --- | --- | --- | --- | --- | --- |
| B1 | 35.4 | 0.00436 | 123000 | – | – | – |
| B2 | 35.8 | 0.00317 | 88500 | – | – | – |
| B3 | 20 | 0.00672 | 336000 | – | – | – |
| B4 | 23.7 | 0.00395 | 166000 | – | – | – |
| B5 | – | – | – | 41.6 | 0.00751 | 181000 |
| B6 | 33.8 | 0.00391 | 116000 | – | – | – |
| B7 | 14.2 | 0.00271 | 191000 | – | – | – |
| B8 | – | – | – | 261 | 0.0651 | 250000 |
| B9 | 36 | 0.00382 | 106000 | – | – | – |
| B10 | – | – | – | 114 | 0.0175 | 154000 |
